According to the supplement of paper PMC9112550, “Optimization of the antimicrobial peptide Bac7 by deep mutational scanning” (BMC Biology, 2022):

System: Escherichia coli TOP10
Assay: shrunken log2 fold change of peptide-encoding DNA abundance (4.5 h post-induction vs induction); higher = less antimicrobial activity (less host growth inhibition)
Conditions: time post-induction: 4.5 h; library: site-saturation at positions 5, 18, 19, 20
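Note: peptides expressed intracellularly from a pBAD plasmid library in pooled LB shake-flask culture, induced with 0.3% L-arabinose, DNA abundance read by NGS, three biological replicates, DESeq2 with apeglm shrinkage.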

RRIRCRPPRLPRPRPRPYGRPRP
shrunken log2 fold change: -0.114

RRIRKRPPRLPRPRPRPERHPRP
shrunken log2 fold change: 0.105

RRIRLRPPRLPRPRPRPTRYPRP
shrunken log2 fold change: 0.0777

RRIRPRPPRLPRPRPRPLHDPRP
shrunken log2 fold change: -0.034

RRIRLRPPRLPRPRPRPWLMPRP
shrunken log2 fold change: -0.102

RRIRYRPPRLPRPRPRPTPWPRP
shrunken log2 fold change: -0.145

RRIRARPPRLPRPRPRPSQMPRP
shrunken log2 fold change: 0.0732

RRIRKRPPRLPRPRPRPRMYPRP
shrunken log2 fold change: 0.155

RRIRPRPPRLPRPRPRPAMEPRP
shrunken log2 fold change: 0.226

RRIRARPPRLPRPRPRPIFIPRP
shrunken log2 fold change: 0.127

RRIRNRPPRLPRPRPRPQCGPRP
shrunken log2 fold change: -0.241

RRIRRRPPRLPRPRPRPWHHPRP
shrunken log2 fold change: -0.242

RRIRHRPPRLPRPRPRPRSVPRP
shrunken log2 fold change: 0.0714

RRIRWRPPRLPRPRPRPPMPPRP
shrunken log2 fold change: 0.444

RRIRRRPPRLPRPRPRPDRDPRP
shrunken log2 fold change: 0.15

RRIRRRPPRLPRPRPRPWSEPRP
shrunken log2 fold change: -0.142

RRIRYRPPRLPRPRPRPGPYPRP
shrunken log2 fold change: -0.771

RRIRHRPPRLPRPRPRPDDQPRP
shrunken log2 fold change: -0.0481

RRIRKRPPRLPRPRPRPWKAPRP
shrunken log2 fold change: 0.49

RRIRIRPPRLPRPRPRPGQQPRP
shrunken log2 fold change: 0.0905

RRIRERPPRLPRPRPRPFEGPRP
shrunken log2 fold change: -0.105

RRIRSRPPRLPRPRPRPDITPRP
shrunken log2 fold change: 0.0856

RRIRIRPPRLPRPRPRPDYTPRP
shrunken log2 fold change: -0.00167

RRIRSRPPRLPRPRPRPHHRPRP
shrunken log2 fold change: -0.43

RRIRLRPPRLPRPRPRPEQEPRP
shrunken log2 fold change: -0.104

RRIRDRPPRLPRPRPRPYIHPRP
shrunken log2 fold change: -0.117

RRIRARPPRLPRPRPRPLVTPRP
shrunken log2 fold change: 0.178

RRIRFRPPRLPRPRPRPFIPPRP
shrunken log2 fold change: -0.823

RRIRERPPRLPRPRPRPVTDPRP
shrunken log2 fold change: -0.069

RRIRWRPPRLPRPRPRPKGVPRP
shrunken log2 fold change: 0.109

RRIRYRPPRLPRPRPRPFKRPRP
shrunken log2 fold change: -0.294

RRIRIRPPRLPRPRPRPQEAPRP
shrunken log2 fold change: 0.0332

RRIRMRPPRLPRPRPRPTNRPRP
shrunken log2 fold change: 0.282

RRIRQRPPRLPRPRPRPKHVPRP
shrunken log2 fold change: -0.067

RRIRYRPPRLPRPRPRPTSPPRP
shrunken log2 fold change: -0.0595

RRIRVRPPRLPRPRPRPYTGPRP
shrunken log2 fold change: -0.0211

RRIRIRPPRLPRPRPRPEMIPRP
shrunken log2 fold change: -0.0257

RRIRFRPPRLPRPRPRPQMFPRP
shrunken log2 fold change: -0.103

RRIRQRPPRLPRPRPRPYTGPRP
shrunken log2 fold change: -0.0162

RRIRARPPRLPRPRPRPIGGPRP
shrunken log2 fold change: -0.0402

RRIRCRPPRLPRPRPRPVDEPRP
shrunken log2 fold change: 2.09

RRIRSRPPRLPRPRPRPLKWPRP
shrunken log2 fold change: 0.0381

RRIRGRPPRLPRPRPRPWGNPRP
shrunken log2 fold change: 0.0898

RRIRDRPPRLPRPRPRPPETPRP
shrunken log2 fold change: 0.743

RRIRCRPPRLPRPRPRPHDYPRP
shrunken log2 fold change: -0.482

RRIRTRPPRLPRPRPRPAYKPRP
shrunken log2 fold change: 0.0328

RRIRQRPPRLPRPRPRPLNCPRP
shrunken log2 fold change: -0.0264

RRIRVRPPRLPRPRPRPFKHPRP
shrunken log2 fold change: -0.0897

RRIRTRPPRLPRPRPRPPLWPRP
shrunken log2 fold change: 0.689

RRIRPRPPRLPRPRPRPWCNPRP
shrunken log2 fold change: -0.239

RRIRRRPPRLPRPRPRPMDSPRP
shrunken log2 fold change: -0.0307

RRIRNRPPRLPRPRPRPGSIPRP
shrunken log2 fold change: -0.00285

RRIRTRPPRLPRPRPRPMPAPRP
shrunken log2 fold change: 0.102

RRIRPRPPRLPRPRPRPLPVPRP
shrunken log2 fold change: -0.4

RRIRRRPPRLPRPRPRPYRAPRP
shrunken log2 fold change: -0.47

RRIRNRPPRLPRPRPRPYFPPRP
shrunken log2 fold change: -0.143

RRIRLRPPRLPRPRPRPKVGPRP
shrunken log2 fold change: 0.109

RRIRKRPPRLPRPRPRPIKGPRP
shrunken log2 fold change: -0.141

RRIRRRPPRLPRPRPRPLVLPRP
shrunken log2 fold change: 0.0551

RRIRIRPPRLPRPRPRPVEKPRP
shrunken log2 fold change: -0.126

RRIRLRPPRLPRPRPRPRLYPRP
shrunken log2 fold change: -0.26

RRIRDRPPRLPRPRPRPYNTPRP
shrunken log2 fold change: -0.476

RRIRIRPPRLPRPRPRPWHDPRP
shrunken log2 fold change: -0.676

RRIRARPPRLPRPRPRPMYWPRP
shrunken log2 fold change: -0.0443

RRIRVRPPRLPRPRPRPLWKPRP
shrunken log2 fold change: -0.0321

RRIRPRPPRLPRPRPRPLDSPRP
shrunken log2 fold change: -0.0664

RRIRSRPPRLPRPRPRPAMFPRP
shrunken log2 fold change: -0.0843

RRIRHRPPRLPRPRPRPAPSPRP
shrunken log2 fold change: 0.709

RRIRLRPPRLPRPRPRPDQYPRP
shrunken log2 fold change: -0.014

RRIRFRPPRLPRPRPRPHQWPRP
shrunken log2 fold change: -0.0612

RRIRGRPPRLPRPRPRPRHPPRP
shrunken log2 fold change: 0.442

RRIRYRPPRLPRPRPRPMSYPRP
shrunken log2 fold change: -0.0389

RRIRPRPPRLPRPRPRPHWRPRP
shrunken log2 fold change: 0.0957

RRIRKRPPRLPRPRPRPHGEPRP
shrunken log2 fold change: 0.428

RRIRLRPPRLPRPRPRPWALPRP
shrunken log2 fold change: 0.0419

RRIRARPPRLPRPRPRPHNNPRP
shrunken log2 fold change: -0.363

RRIRPRPPRLPRPRPRPSIWPRP
shrunken log2 fold change: -0.11

RRIRCRPPRLPRPRPRPFHLPRP
shrunken log2 fold change: -1.11

RRIRDRPPRLPRPRPRPHSCPRP
shrunken log2 fold change: -0.00804

RRIRQRPPRLPRPRPRPQYPPRP
shrunken log2 fold change: -0.199

RRIRFRPPRLPRPRPRPHHLPRP
shrunken log2 fold change: -1.06

RRIRHRPPRLPRPRPRPNVDPRP
shrunken log2 fold change: 0.187

RRIRARPPRLPRPRPRPYLQPRP
shrunken log2 fold change: -0.276

RRIRFRPPRLPRPRPRPKMMPRP
shrunken log2 fold change: -0.147

RRIRYRPPRLPRPRPRPIMVPRP
shrunken log2 fold change: -0.152

RRIRYRPPRLPRPRPRPSKVPRP
shrunken log2 fold change: -1.04

RRIRKRPPRLPRPRPRPGHHPRP
shrunken log2 fold change: 0.228

RRIRRRPPRLPRPRPRPDDEPRP
shrunken log2 fold change: 0.0458

RRIRSRPPRLPRPRPRPTHLPRP
shrunken log2 fold change: 0.135

RRIRTRPPRLPRPRPRPVFLPRP
shrunken log2 fold change: -0.56

RRIRCRPPRLPRPRPRPNWGPRP
shrunken log2 fold change: -0.0514

RRIRDRPPRLPRPRPRPPHLPRP
shrunken log2 fold change: 0.0118

RRIRRRPPRLPRPRPRPCFWPRP
shrunken log2 fold change: 0.406

RRIRYRPPRLPRPRPRPVDKPRP
shrunken log2 fold change: -0.00804

RRIRLRPPRLPRPRPRPPTLPRP
shrunken log2 fold change: 0.4

RRIRIRPPRLPRPRPRPRGSPRP
shrunken log2 fold change: -0.189

RRIRQRPPRLPRPRPRPFKNPRP
shrunken log2 fold change: 0.0784

RRIRTRPPRLPRPRPRPINYPRP
shrunken log2 fold change: -0.502

RRIRMRPPRLPRPRPRPNKQPRP
shrunken log2 fold change: 0.0442

RRIRGRPPRLPRPRPRPLQCPRP
shrunken log2 fold change: 0.904

RRIRYRPPRLPRPRPRPEGRPRP
shrunken log2 fold change: 0.172

RRIRRRPPRLPRPRPRPVFSPRP
shrunken log2 fold change: -0.0171

RRIRTRPPRLPRPRPRPTRWPRP
shrunken log2 fold change: 0.301

RRIRLRPPRLPRPRPRPRETPRP
shrunken log2 fold change: -0.0213

RRIRWRPPRLPRPRPRPLMIPRP
shrunken log2 fold change: -0.304

RRIRNRPPRLPRPRPRPFDGPRP
shrunken log2 fold change: -0.0509

RRIRIRPPRLPRPRPRPAMSPRP
shrunken log2 fold change: -0.0178

RRIRLRPPRLPRPRPRPVWCPRP
shrunken log2 fold change: 0.0297

RRIRERPPRLPRPRPRPELRPRP
shrunken log2 fold change: 0.0526

RRIRHRPPRLPRPRPRPHCRPRP
shrunken log2 fold change: 0.0364

RRIRFRPPRLPRPRPRPRIPPRP
shrunken log2 fold change: -0.0955

RRIRYRPPRLPRPRPRPGDGPRP
shrunken log2 fold change: 0.0695

RRIRGRPPRLPRPRPRPRTIPRP
shrunken log2 fold change: 0.375

RRIRHRPPRLPRPRPRPRWNPRP
shrunken log2 fold change: -0.065

RRIRCRPPRLPRPRPRPARSPRP
shrunken log2 fold change: 0.261

RRIRWRPPRLPRPRPRPLWYPRP
shrunken log2 fold change: -0.225

RRIRQRPPRLPRPRPRPKRIPRP
shrunken log2 fold change: -0.0308

RRIRMRPPRLPRPRPRPYIYPRP
shrunken log2 fold change: -0.384

RRIRFRPPRLPRPRPRPGWQPRP
shrunken log2 fold change: 0.188

RRIRNRPPRLPRPRPRPAKPPRP
shrunken log2 fold change: -0.00229

RRIRRRPPRLPRPRPRPWPAPRP
shrunken log2 fold change: 0.448

RRIRRRPPRLPRPRPRPEPRPRP
shrunken log2 fold change: 1.02

RRIRCRPPRLPRPRPRPSCRPRP
shrunken log2 fold change: -0.685

RRIRWRPPRLPRPRPRPHNSPRP
shrunken log2 fold change: -0.394

RRIRVRPPRLPRPRPRPKEEPRP
shrunken log2 fold change: 0.00911
